Laboratory results: publication PMC10351726 (2023)

Target: HER2-ECD biotinylated at single site (human, UniProt P04626 23-652, biotinylated at single site)
Assay: SPR

Row | Kd | Binder
1 | 0.183 nM | NanoMab-02 (NM-02) (VHH) VHH: QVQLQESGGGSVQAGETLRLSCTASGFTFDDSDMGWYRQAPGNECELVSSISSDGSTYYADSVKGRFTISQDNAKNTVYLQMNSLKPEDTGVYYCAAEGHRYELGTCAALDYWGRGTQVTVSS
2 | 0.434 nM | humanised NM-02 variant E (VHH) VHH: QVQLQESGGGLVQPGGSLRLSCSASGFTFDDSDMGWYRQAPGNECELVSSISSDGSTYYADSVKGRFTISQDNSKNTLYLQMNSLRAEDTGVYYCAAEGHRYELGTCAALDYWGRGTLVTVSS
